{"source": "paper PMC10107573", "about": "(Nature Communications, 2023)", "target": "T1, SARS-CoV-2 Omicron BA.1 spike ectodomain (S trimer) (SARS-CoV-2 Omicron BA.1, S371L | S373P | S375F | S477N | E484A)", "T1 construct": "also called BA.1 S trimer", "test": "cryo-EM structure", "details": "both partners purified", "data": [{"binder": "10-5B Fab (Fab, V domains shown, also called 10-5B Fab fragments) VH: EVQLVESGGGLIQPGGSLRLSCAVSGFTVSRMSWVRQAPGKGLECVSVIYTGGNTDYADSVKGRFTISRDNSKNTLYLQMNSLRAEDTALYYCVRGSGGIHDAFDIWGQGTMVTVSS VL: DIQMTQSPSSVSASVGDRVTITCRASQGISTWLAWYQQKPGKAPKVLINAASGLQSGVPSRFSGSGSGTDFTLTISSLQPEDFATYYCQQAHSFPPTFGPGTKLEIK", "values": [{"measurement": "stoichiometry N", "value": 3, "unit": "Fabs per S trimer"}]}]}
